Test results from patent publication US20080200416A1 (Stanford University, published 2008).

Biological target: T1, SHP-2 (mouse, UniProt P35235 2-593, limits assumed)
T1 construct: Endogenous protein probed in anti-Lck immunoprecipitates; also called tyrosine phosphatase SHP-2
T1 sequence (looked up): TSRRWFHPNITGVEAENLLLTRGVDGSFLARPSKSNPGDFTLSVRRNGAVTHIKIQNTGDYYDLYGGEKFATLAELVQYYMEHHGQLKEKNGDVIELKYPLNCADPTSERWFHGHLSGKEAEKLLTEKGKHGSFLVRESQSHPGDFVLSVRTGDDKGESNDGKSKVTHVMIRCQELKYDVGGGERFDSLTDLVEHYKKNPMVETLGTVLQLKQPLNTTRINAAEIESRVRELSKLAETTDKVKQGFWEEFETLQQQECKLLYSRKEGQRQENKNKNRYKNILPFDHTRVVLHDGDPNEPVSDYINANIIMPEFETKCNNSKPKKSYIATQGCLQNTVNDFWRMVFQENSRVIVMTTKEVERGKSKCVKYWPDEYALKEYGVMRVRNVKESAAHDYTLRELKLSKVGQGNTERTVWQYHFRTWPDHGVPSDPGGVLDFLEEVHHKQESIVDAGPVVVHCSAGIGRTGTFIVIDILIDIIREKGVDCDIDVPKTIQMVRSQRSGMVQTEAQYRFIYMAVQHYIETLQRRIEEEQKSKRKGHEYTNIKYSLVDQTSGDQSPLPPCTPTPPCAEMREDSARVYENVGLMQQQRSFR
Experiment: co-immunoprecipitation with anti-Lck from 5C.C7 T cell lysates, Western blot
Procedure: (A) Western blot analyses of anti-Lck immuno-precipitates to detect site-specific phosphorylation. Phosphorylation of Lck at the activating Y394 or inhibitory Y505 before antigen stimulation were probed with specific antibodies. […] Membranes were stripped and re-probed for Lck as loading controls. (B) Induction of ERK phosphorylation by the antagonist MCC 99R. Virally-infected T cells were mixed with CH27 cells alone or CH27 cells preloaded with 10 μM MCC 99R, spun down to facilitate rapid T:APC contact, incubated at 37° C. for 5 minutes, and analyzed for ERK phosphorylation by Phosphor-Flow. Cells were gated on GFP and CD4 for virally-infected T cells. […] (D) Western blot analyses of anti-Lck immuno-precipitates to detect Lck serine phosphorylation before antigen stimulation. […] Double selected 5C.C7 T cells were mixed with peptide pre-loaded CH27 cells (10 μM MCC 99R or 1 μM MCC) by quick spin and incubated at 37° C. for 5 mins. SHP-1 was co-precipitated with Lck whereas SHP-2 was undetectable under the same condition.

- binding result: no binding
B1: Lck (enzyme, mouse, UniProt P06240 2-509, looked up)
chain: GCVCSSNPEDDWMENIDVCENCHYPIVPLDSKISLPIRNGSEVRDPLVTYEGSLPPASPLQDNLVIALHSYEPSHDGDLGFEKGEQLRILEQSGEWWKAQSLTTGQEGFIPFNFVAKANSLEPEPWFFKNLSRKDAERQLLAPGNTHGSFLIRESESTAGSFSLSVRDFDQNQGEVVKHYKIRNLDNGGFYISPRITFPGLHDLVRHYTNASDGLCTKLSRPCQTQKPQKPWWEDEWEVPRETLKLVERLGAGQFGEVWMGYYNGHTKVAVKSLKQGSMSPDAFLAEANLMKQLQHPRLVRLYAVVTQEPIYIITEYMENGSLVDFLKTPSGIKLNVNKLLDMAAQIAEGMAFIEEQNYIHRDLRAANILVSDTLSCKIADFGLARLIEDNEYTAREGAKFPIKWTAPEAINYGTFTIKSDVWSFGILLTEIVTHGRIPYPGMTNPEVIQNLERGYRMVRPDNCPEELYHLMMLCWKERPEDRPTFDYLRSVLDDFFTATEGQYQPQP
notes: Endogenous protein in T cell lysates; the phosphorylation state varies with the condition
